Values of other authors in PMC10991417.

Target: Vasa CTD (Drosophila melanogaster) (UniProt P09052)
Chain of UniProt P09052 (P09052 463-623): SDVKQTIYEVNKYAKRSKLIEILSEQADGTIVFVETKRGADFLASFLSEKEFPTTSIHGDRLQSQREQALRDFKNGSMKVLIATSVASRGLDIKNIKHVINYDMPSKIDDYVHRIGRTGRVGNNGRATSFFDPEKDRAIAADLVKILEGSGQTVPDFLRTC

- Kd: 10 µM
Substance: Oskar eLOTUS (from UniProt P25158)
